The target of the experiment is T1, Mto1-SZZ (protein A-tagged Mto1) (Schizosaccharomyces pombe, UniProt O94488 1-1115).
T1 construct: Mto1, Schizosaccharomyces pombe; Bait of all IgG-bead pulldowns; also called SZZ-tagged Mto1; source: S. pombe, gene tagged by PCR-based methods, in cell extract
T1 sequence (looked up): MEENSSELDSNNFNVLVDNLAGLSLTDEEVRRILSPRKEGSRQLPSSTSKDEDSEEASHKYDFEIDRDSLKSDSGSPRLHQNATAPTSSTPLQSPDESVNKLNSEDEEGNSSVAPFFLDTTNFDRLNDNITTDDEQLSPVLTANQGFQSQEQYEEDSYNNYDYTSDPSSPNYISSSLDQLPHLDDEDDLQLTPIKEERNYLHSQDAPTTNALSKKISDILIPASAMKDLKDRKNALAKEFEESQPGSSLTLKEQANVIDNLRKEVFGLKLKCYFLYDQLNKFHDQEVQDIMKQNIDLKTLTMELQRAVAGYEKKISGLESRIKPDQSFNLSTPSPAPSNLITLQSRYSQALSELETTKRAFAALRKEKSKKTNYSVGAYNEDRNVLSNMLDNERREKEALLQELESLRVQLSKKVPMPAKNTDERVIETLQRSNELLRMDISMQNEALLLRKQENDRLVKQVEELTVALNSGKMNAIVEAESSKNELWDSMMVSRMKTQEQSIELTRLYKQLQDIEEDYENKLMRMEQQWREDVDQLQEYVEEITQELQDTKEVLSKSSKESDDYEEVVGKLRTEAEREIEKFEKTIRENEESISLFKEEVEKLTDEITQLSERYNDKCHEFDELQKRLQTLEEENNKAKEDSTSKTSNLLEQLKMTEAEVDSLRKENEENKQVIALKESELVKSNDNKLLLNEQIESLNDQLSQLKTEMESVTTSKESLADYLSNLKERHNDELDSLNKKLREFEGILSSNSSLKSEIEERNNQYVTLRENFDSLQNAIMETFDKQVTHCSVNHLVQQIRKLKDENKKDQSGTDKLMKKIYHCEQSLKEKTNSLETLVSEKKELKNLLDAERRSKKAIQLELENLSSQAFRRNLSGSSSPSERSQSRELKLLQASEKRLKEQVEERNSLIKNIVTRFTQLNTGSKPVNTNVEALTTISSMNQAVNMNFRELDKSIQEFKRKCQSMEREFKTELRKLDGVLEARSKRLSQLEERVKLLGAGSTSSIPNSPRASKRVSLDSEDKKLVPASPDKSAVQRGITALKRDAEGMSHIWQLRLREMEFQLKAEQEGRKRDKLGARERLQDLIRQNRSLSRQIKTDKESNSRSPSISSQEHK
Kind of experiment: pull-down; IgG-coupled Dynabeads pull Mto1-SZZ from extracts of interphase (asynchronous) S. pombe cells (mto2+, mto2[6A], mto2[13A], mto2[17A], mto2[24A]); 90 min at 4 °C; lysis buffer 25 mM sodium phosphate pH 7.5, 100 mM KCl, 0.5 mM EDTA, 0.2% Triton X-100 with protease and phosphatase inhibitors; western blot. Particulars: partners not purified. On the technique in general: In western blotting, separated proteins are transferred to a membrane and probed.

Consider one molecule from PMC4918325, “Mto2 multisite phosphorylation inactivates non-spindle microtubule nucleation complexes during mitosis” (Nature Communications, 2015).

B1: Gtb1 (S. pombe γ-tubulin) (natural protein, UniProt P25295 1-446, looked up)
chain: MGREIITLQAGQCGNQIGSQFWQQLCLEHGIGPDGTLESFATEGVDRKDVFFYQSDDTRYIPRAILIDLEPRVVNNILSDTYGSLYNPENILITKNGGGAGNNWANGYSHAERIFEDIMDMIDREADGSDSLEGFSLLHSIAGGTGSGLGSFLLERLNDRYPKKIIQTYSVFPNSQSVSDVVVQPYNSLLALKRLTLNADSVVVLDNAALAHIAADRLHTQNPTFHQQNQLVSTVMSASTTTLRYPGYMNNDLVSIIASLIPSPRCHFLLTSYTPFTNQQVEEAKAIRKTTVLDVMRRLLLPKNQMVSVNPSKKSCFISILDIIQGEADPADVHKSLLRIRERRYASFIPWGPASIQVALSKKSPYIKTNHRVSGLMLANHTSIASLFKRTLDQYDRLRKRNAFLEQYKKEAIFEDDLNEFDSSRDVVADLINEYEACEDPNYLSL
notes: γ-tubulin Gtb1, Schizosaccharomyces pombe; Detected by anti-γ-tubulin blot (GTU-88); also called read-out of the γ-tubulin complex (γ-TuC); source: endogenous, S. pombe cell extract
Take B1: the “fold change of γ-tubulin copurifying with Mto1-SZZ in mto2[6A] cells relative to wild-type cells” value is approximately 1.5 fold, the “fold change of γ-tubulin copurifying with Mto1-SZZ in mto2[13A] cells relative to wild-type cells” value is approximately 1.5 fold and the “fold change of γ-tubulin copurifying with Mto1-SZZ in mto2[17A] cells relative to wild-type cells” value is approximately 3 fold.
